{"source": "patent EP4545563A1", "about": "(Foreseen Technology (Beijing) Co., Ltd., dated 2024)", "binders": {"B1": {"name": "Humanized antibody FS002-C11 (antibody, human IgG1, kappa, V domains shown)", "VH": "RLQLQESGPRLVKPSETLSLTCSVSGGSISSRNHYWAWIRQPPGKGLEWIGYIYYSGSTYYNPSLKSRVTISVDTSKNQFSLKLSSVTAADTAVYYCARVGLLLRDFDYWGQGTLVTVSS", "VL": "DIQMIQSPSSVSASVGDRVTITCRASQGISNSLAWYQHKPGTTPKLLIYAASSLQGGVPSRFSGSSSETDFTLTISSLQPEDFATYYCQQANSFPITFGQGTRLDIKR", "notes": "IgG1 heavy chain, kappa light chain"}, "B2": {"name": "Humanized antibody FS002-B27 (antibody, human IgG1, kappa, V domains shown)", "VH": "QVQLVQSGAEVKKPGSSVKVSCKASGGTFSSYAISWVRQAPGQGLEWMGRIIPILGIANYAQKFQGRVTITADKSTSTAYMELSSLRSEDTAVYYCARAEGSSWYYFDYWGQGTLVTVSS", "VL": "NIQLTQSPSSVSASVGDRVTITCRASQGFSRWLAWYQQKPGKAPKLLIYGASSLQSGVPSRFSGSGSGTDFTLTISSLQPEDFATYYCQQANSFPLTFGGGTKLEIKR", "notes": "as for B1"}, "B3": {"name": "Humanized antibody FS002-A72 (antibody, human IgG1, kappa, V domains shown)", "VH": "QVQLVDSGGGLVQPGGSLRLSCVASGFAFSNYEMNWVRQAPGKGLEWVSYISSSSSYTNYADSVKGRFTISRDNAKNSLYLQMNSLRAEDTAVYYCARAQVRDAFDIWGQGTTVTVSS", "VL": "IVMTQSPVTLSVSPGDSATLSCRASQSVDKNLAWYQQKTGQAPRLLIYGAATRATGIPARFSGSGSGTEFTLTISSLRSEDFAVYYCQQYRNWPWTFGLGTKVEIKR", "notes": "as for B1"}, "B4": {"name": "Humanized antibody FS002-A66 (antibody, human IgG1, kappa, V domains shown)", "VH": "EVQLVESGGGVVQPGRSLRLSCAASGFTFSSYAMHWVRQAPGKGLEWVAVISYDGSNKYYVDSVKGRFTISRDNSKNTLYLQMNSLRAEDTAVYYCARDRITYLDYYYYGMDVWGQGTTVTVSS", "VL": "EIVLTQSPAILSLSPGERATLSCRASQSVSEYLAWYQQKPGQAPRLLIYDISNRATGIPARFSGSGSETDFTLTISSLEPEDFAVYYCQQRRTWPLTFGPGTKVDIKR", "notes": "as for B1"}, "B5": {"name": "Humanized antibody FS002-A5 (antibody, human IgG1, kappa, V domains shown)", "VH": "QVQLQDSGPGLVKPSQTLSLTCTVSGGSISSGGYYWSWIRQHPGKGLEWIGYIYYSGSTYYNPSLKSRVTISVDTSKNQFSLKLSSVTAADTAVYYCARVPVPLVGAFDIWGQGTMVTVSS", "VL": "EIVLTQSPATLSLSPGERATLSCRASQSVSSNLGWYQQKPGQAPSLLIYGASNRATGIPARFSGSGSGTDFTLTISSLEPEDFAVYYCQQRDTWPLTFGGGTKVEIKR", "notes": "as for B1"}, "B6": {"name": "FS002-A36-vc-MMAE (antibody, human IgG1, kappa, V domains shown)", "VH": "QVQLQESGPGLVKPSQTLSLTCTVSGGSISSGGYYWSWIRQHPGKGLEWIGYIYYSGSTYYNPSLKSRVTISVDTSKNQFSLKLSSVTAADTAVYYCARVRLLGGGFDIWGQGTTVTVSS", "VL": "B4 VL with I10T, E31T, I51T, N53I, E68G, R92S, T93N, P100G, D105E", "modifications": "vc-MMAE (mc-vc-PAB-MMAE) linker-payload conjugated after TCEP reduction, DAR 3.8 for the whole antibody; sites not stated"}, "B7": {"name": "FS002-A15-vc-MMAE (antibody, human IgG1, kappa, V domains shown)", "VH": "RLQLQESGPGLVKPSQTLSLTCTVSGGSISSGGYYWSWIRQHPGKGLEWIGYIYYSGSTYYNPSLKSRVTISVDTSKNQFSLKLSSVTAADTAVYYCARATIYGYFDYWGQGTLVTVSS", "VL": "EIVLTQSPATLPLSPGERATLSCRASQSVGFYLAWYQQKPGQPPRLLFYDASKRATGIPARFSASGSGTDFTLTISGLEPEDFAVYYCQHRISWPLTFGQGTKVEVKR", "modifications": "vc-MMAE (mc-vc-PAB-MMAE) linker-payload conjugated after TCEP reduction, DAR 2.9 for the whole antibody; sites not stated"}, "B8": {"name": "FS002-A1-vc-MMAE (antibody, V domains shown)", "VH": "QVQLVQSGAEVKKPGASVKVSCKASGYTFTSYYMHWVRQAPGQGLEWMGIINPSGGSTSYAQKFQGRVTMTRDTSTSTVYMELSSLRSEDTAVYYCARDISGSYQTDAFDIWGQGTMVTVSS", "VL": "not shown", "modifications": "vc-MMAE (mc-vc-PAB-MMAE) linker-payload conjugated after TCEP reduction, DAR 3.4 for the whole antibody; sites not stated"}}, "note": "Substitutions are numbered along the chain they refer to.", "data": [{"target": "T1, ITGA2-His (human, UniProt P17301 30-1132, limits assumed)", "T1 construct": "also called ITGA2 protein; not shown: His tag", "T1 sequence (looked up)": "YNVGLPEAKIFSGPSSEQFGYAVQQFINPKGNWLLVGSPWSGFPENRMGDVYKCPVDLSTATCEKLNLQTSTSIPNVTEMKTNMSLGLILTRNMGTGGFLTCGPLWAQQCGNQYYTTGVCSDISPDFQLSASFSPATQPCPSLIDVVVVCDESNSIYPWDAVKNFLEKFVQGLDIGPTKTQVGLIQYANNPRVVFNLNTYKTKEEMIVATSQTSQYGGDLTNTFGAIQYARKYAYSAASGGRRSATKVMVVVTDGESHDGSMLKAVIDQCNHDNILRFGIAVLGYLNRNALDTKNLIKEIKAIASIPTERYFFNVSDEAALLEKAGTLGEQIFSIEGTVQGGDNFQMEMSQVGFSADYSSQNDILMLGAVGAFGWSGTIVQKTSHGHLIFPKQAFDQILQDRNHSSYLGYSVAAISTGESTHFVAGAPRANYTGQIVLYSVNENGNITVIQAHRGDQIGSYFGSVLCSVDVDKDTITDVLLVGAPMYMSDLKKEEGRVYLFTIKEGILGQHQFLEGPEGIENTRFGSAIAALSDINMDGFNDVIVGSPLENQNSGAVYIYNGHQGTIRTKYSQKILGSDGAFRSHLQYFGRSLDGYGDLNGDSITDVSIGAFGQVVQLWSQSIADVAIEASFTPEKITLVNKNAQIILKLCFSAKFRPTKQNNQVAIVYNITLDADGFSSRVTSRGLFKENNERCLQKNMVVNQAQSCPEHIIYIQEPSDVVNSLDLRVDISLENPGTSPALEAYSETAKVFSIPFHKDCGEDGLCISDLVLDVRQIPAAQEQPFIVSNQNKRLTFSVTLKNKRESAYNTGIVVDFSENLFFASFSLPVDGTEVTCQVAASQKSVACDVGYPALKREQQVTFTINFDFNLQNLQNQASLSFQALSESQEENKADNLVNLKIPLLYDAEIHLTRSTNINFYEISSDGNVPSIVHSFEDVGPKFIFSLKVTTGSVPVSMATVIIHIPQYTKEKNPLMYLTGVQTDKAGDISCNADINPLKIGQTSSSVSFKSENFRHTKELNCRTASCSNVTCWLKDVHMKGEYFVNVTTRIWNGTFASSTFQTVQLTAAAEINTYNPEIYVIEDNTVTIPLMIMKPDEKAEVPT", "assay": "ELISA, plate coated with 2 ug/mL ITGA2-His, anti-human IgG-Fc-HRP detection", "units": {"EC50": "nM"}, "values": [{"binder": "B1", "EC50": 0.035}, {"binder": "B2", "EC50": 0.571}, {"binder": "B3", "EC50": 0.259}, {"binder": "B4", "EC50": 0.031}, {"binder": "B5", "EC50": 0.032}]}, {"target": "T2, ITGA2 protein on the surface of human tumor cells (HuCCT1, A431) (human, UniProt P17301 30-1181)", "T2 construct": "whole, on cells; Endogenously expressed on the cell lines; the cell line of each entry is named under assay or readout; also called Integrin alpha-2; ITGA2-positive HuCCT1 cells", "T2 sequence (looked up)": "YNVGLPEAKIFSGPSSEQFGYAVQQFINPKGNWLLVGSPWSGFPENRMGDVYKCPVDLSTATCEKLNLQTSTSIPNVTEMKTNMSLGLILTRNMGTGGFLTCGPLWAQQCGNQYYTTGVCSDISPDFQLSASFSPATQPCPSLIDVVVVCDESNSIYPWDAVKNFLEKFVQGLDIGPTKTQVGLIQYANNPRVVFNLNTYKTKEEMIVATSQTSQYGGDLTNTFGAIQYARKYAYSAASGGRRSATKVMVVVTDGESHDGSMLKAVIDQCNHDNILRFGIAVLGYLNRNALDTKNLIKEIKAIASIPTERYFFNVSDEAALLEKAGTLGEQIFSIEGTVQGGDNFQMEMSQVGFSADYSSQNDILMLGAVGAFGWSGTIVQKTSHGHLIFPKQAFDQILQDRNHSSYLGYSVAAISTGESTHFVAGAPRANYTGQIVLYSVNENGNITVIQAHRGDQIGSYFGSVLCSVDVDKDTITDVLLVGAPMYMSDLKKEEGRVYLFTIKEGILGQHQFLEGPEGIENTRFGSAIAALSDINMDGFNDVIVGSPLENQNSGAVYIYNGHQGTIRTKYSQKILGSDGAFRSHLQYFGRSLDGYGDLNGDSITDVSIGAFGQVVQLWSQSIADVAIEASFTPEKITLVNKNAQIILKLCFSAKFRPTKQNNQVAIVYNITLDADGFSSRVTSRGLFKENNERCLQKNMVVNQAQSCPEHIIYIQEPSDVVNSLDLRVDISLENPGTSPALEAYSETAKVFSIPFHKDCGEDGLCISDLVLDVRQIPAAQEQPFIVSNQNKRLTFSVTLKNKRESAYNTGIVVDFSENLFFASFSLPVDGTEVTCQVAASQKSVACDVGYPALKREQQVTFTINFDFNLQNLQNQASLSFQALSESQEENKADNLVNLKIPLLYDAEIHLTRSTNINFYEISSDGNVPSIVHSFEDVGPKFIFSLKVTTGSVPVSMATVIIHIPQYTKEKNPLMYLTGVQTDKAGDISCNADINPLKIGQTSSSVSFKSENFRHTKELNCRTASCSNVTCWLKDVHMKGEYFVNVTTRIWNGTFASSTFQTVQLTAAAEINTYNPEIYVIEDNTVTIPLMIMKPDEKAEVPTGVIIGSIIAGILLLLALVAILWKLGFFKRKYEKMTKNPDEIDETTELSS", "assay": "flow cytometry on HuCCT1 cells, goat anti-human IgG (H+L) secondary antibody", "units": {"EC50": "nM"}, "values": [{"binder": "B1", "EC50": 0.747}, {"binder": "B2", "EC50": 2.75}, {"binder": "B3", "EC50": 17.2}, {"binder": "B4", "EC50": 2.35}, {"binder": "B5", "EC50": 1.27}]}, {"target": "T2, ITGA2 protein on the surface of human …", "assay": "cell-based or functional assay", "units": {"A431 cell killing IC50": "nM", "HuCC-T1 cell killing IC50": "nM"}, "values": [{"binder": "B6", "A431 cell killing IC50": 0.02, "HuCC-T1 cell killing IC50": 0.08}, {"binder": "B7", "A431 cell killing IC50": 0.2, "HuCC-T1 cell killing IC50": 0.2}, {"binder": "B8", "A431 cell killing IC50": 0.14, "HuCC-T1 cell killing IC50": 0.14}]}]}
